Source: patent US7871610B2, “Antibodies to Tie1 ectodomain” (Dyax Corp., priority 2003, dated 2011)

Experiments:
[1] = biological target: Tie1 (Homo sapiens, UniProt P35590); experiment: Immunoprecipitation from HUVEC lysates; format: binding; set-up: endogenous in cells; host or cells: HUVEC; details: 5 μg/ml antibody
Method: The conclusion from this study was that platelets represent a large pool of Tie-1 immunoreactivity which could present a problem for development of Tie1 as a therapeutic target. […] Both, activated and inactivated platelets were tested. Anti-Tie-1 antibodies B2, D11, E3, the goat polyclonal AF619 (R&D) and negative control antibodies anti-FITC and anti-Streptavidin were used. HUVECS were retrieved from culture dishes by trypsinization and platelets were prepared with the platelet GelSep kit (Biocytex, Marseille, France) kit according to the guidelines of the manufacturer. Per immunoprecipitation experiment 3-5e10^6 and 3e10^8 cells platelets were used for each antibody tested. Platelets and cells were washed with PBS and spun down at 1400 rpm for 4 minutes and supernatant was removed. Then cells were lysed in 1 ml lysis buffer containing 50 mM Tris HCL pH 7.5, 150 mM NaCl, 0.5% Deoxycholic acid (DOC) and 0.5% NP-40 for 5 minutes. The lysed cells were spin down for 10 minutes at 14.000 rpm and 5 μg/ml antibody was added to the supernatant and incubated at 4° C. on a rotator. 100 μl/sample protein A beads (Uppsala, Sweden) were washed 3 times with lysis buffer (centrifugation speed: 1.5 seconds, 2000 rpm) then cell lysates incubated with antibody were added for 30 minutes 4° C. […] In Western blotting Tie-1 was detected with the polyclonal goat anti-Tie-1 antibody.

[2] = biological target: T1, Tie1-EpoR chimeric receptor (UniProt P14753+P35590); experiment: Ba/F3 bioassay (Tie1/EpoR chimeric BaF3 cell assay), MTT viability; format: cell-based, human; details: for survival/viability of Tie1-EpoR Ba/F3 cells: antibody alone, no IL-3
T1 construct: the PCR amplified extracellular part of human Tie1 (bp 37-2316 of X60975); expressed in transfected cells
T1 sequence (P35590+P14753 with tags, fused parts or gaps): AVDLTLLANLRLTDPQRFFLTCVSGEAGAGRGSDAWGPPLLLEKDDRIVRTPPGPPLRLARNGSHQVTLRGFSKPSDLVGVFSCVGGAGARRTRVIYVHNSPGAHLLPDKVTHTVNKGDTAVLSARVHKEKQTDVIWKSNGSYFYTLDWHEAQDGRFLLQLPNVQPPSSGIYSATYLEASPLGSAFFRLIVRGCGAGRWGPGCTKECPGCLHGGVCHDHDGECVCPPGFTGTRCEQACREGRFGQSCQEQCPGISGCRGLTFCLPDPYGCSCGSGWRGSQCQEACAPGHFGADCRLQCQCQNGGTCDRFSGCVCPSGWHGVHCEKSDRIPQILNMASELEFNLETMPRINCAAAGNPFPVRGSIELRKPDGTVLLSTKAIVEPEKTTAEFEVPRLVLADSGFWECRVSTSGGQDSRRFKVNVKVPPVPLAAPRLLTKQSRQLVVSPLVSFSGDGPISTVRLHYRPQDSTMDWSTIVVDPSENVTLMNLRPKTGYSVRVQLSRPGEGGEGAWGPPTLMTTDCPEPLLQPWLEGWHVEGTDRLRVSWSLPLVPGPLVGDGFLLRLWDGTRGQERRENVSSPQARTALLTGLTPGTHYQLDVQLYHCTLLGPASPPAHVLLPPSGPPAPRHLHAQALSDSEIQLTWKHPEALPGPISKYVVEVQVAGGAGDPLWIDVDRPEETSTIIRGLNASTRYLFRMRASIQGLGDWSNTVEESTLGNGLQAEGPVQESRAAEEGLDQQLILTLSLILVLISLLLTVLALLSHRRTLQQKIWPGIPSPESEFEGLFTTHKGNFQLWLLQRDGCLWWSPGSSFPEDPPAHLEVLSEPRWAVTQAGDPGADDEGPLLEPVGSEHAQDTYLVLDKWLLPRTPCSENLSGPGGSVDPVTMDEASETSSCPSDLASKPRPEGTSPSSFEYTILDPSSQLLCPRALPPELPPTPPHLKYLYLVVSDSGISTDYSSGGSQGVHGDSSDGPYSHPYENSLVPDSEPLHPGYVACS
Summary of the method: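 Ba/F3 cells expressing human Tie1 extracellular domain fused to mouse EpoR transmembrane/cytoplasmic domains, seeded at 50 000 cells/well with anti-Tie1 antibodies for 48 h. Non-expressing Zeocin-resistant pools served as controls. Survival read by MTT (0.5 mg/ml, 2 h), SDS/HCl lysis overnight at 37 °C, absorbance at 540 nm.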

Tie1, sequence (P35590 22-1138): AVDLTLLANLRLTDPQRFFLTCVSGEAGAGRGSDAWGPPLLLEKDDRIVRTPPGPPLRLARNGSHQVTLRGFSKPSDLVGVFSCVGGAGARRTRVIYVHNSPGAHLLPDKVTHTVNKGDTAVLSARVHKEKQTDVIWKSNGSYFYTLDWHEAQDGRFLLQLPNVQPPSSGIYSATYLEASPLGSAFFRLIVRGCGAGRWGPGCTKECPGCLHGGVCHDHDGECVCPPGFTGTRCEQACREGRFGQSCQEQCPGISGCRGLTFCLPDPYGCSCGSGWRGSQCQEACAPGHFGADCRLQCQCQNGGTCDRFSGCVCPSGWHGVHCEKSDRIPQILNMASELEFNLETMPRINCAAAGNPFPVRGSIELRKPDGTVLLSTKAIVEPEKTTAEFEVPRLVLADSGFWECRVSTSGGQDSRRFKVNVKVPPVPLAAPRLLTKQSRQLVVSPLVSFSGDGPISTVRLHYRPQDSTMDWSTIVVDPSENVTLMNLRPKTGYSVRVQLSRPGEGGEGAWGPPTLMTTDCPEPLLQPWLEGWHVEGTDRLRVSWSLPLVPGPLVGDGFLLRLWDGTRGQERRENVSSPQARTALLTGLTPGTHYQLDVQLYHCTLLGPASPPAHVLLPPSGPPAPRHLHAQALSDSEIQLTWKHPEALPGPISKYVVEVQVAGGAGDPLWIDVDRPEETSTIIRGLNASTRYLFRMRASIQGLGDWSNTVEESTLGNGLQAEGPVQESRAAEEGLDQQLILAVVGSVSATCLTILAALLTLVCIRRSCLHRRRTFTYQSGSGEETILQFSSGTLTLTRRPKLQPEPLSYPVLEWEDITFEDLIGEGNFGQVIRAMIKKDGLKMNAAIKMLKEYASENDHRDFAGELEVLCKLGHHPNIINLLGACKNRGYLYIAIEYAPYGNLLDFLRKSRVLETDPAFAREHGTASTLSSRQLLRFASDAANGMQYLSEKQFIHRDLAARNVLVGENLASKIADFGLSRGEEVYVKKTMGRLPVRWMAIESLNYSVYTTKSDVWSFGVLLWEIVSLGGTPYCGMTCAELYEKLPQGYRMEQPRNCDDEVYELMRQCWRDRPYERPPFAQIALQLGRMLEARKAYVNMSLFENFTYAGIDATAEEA

B1: E3: human anti-Tie1 antibody from Fab phage library; HC SEQ ID NO:114, LC SEQ ID NO:116 (antibody, V domains shown)
VH: EVQLLESGGGLVQPGGSLRLSCAASGFTFSMYGMVWVRQAPGKGLEWVSVISPSGGNTGYADSVKGRFTISRDNSKNTLYLQVNSLRAEDTAVYYCARAPRGYSYGYYYWGQGTLVTVSSASTKGPSVFPLAPSSKSTSGG
VL: DIQMTQSPLSLSASVGDRVTITCRASQGIGHYLAWYQQKPGKVPKLLIYTASTLQSGVPSRFSGSGSGTDFTLTINSLQPEDVATYYCQQFNSYPHTFGQGTRLDIK
modifications: Synthetically generated peptide
B1 was tested, and the “immunoprecipitation of Tie-1 from HUVEC” value [1] was “able to immune precipitate Tie-1 in HUVEC”, the “concentration giving almost maximal viability in Tie1-EpoR cell survival assays” value ([2]; Tie1-EpoR Ba/F3 cells) was 50 ng/mL and the “Average MTT activity in BaF3 cell assay” value ([2]; Tie1-EpoR Ba/F3 cells, 48 h, absorbance 540 nm, E3 IgG 100 ng/ml together with 100 or 500 ng/ml of the other antibody) was 0.61. The “survival/viability of Tie1-EpoR Ba/F3 cells” value [2] was “functions as a Tie1 activating antibody”, the “survival/viability of Tie1-EpoR Ba/F3 cells” value ([2]; listed as E3 IgG) was “able to promote survival” and the “viability of EpoR Ba/F3 cells used as a control” value ([2]; control cells not expressing Tie1-EpoR) was “not affected”.
